Patent publication US20240002498A1 (TENEOBIO, published 2024)
Positions count from the first letter of the chain named.

B1: anti-FOLR1 heavy chain antibody (HCAb, UniAb) clone ID 352317 (antibody, V domains shown)
VH: EVQLVESGGGLVKPGGSLRLSCAASGFTFSSYSMNWVRQAPGKGLEWVSSISSGSSYIYYADSVKGRFTISRDNAKNSLYLQMNSLRAEDTAVYYCARDVTSGIAAAGSAFNIRGQGTLVTVSS
notes: Heavy chain-only antibody (no light chain), F14 family
B2: anti-FOLR1 heavy chain antibody (HCAb, UniAb) clone ID 352368 (antibody, V domains shown)
VH: B1 VH with T28N, S30R, Y32F, S33G, N35T, V37L, S109A
notes: as for B1
B3: anti-FOLR1 heavy chain antibody (HCAb, UniAb) clone ID 352477 (antibody, V domains shown)
VH: B1 VH with K76R
notes: as for B1
B4: anti-FOLR1 heavy chain antibody (HCAb, UniAb) clone ID 352365 (antibody, V domains shown)
VH: EVQLVESGGGLVQPGGSLRLSCAASGFSFSSYSMKWVRQAPGKGLEWVSYISSSSSTIEYADSVKGRFTISRDNAKNSLYLQMNSLRDEDTAVYYCATVGLDFDYRGQGTLVTVSS
notes: Heavy chain-only antibody (no light chain), F18 family
B5: anti-FOLR1 heavy chain antibody (HCAb, UniAb) clone ID 358393 (antibody, V domains shown)
VH: B1 VH with K13Q, V37A, S50Y, G54S, Y57S
notes: as for B1
B6: anti-FOLR1 heavy chain antibody (HCAb, UniAb) clone ID 358396 (antibody, V domains shown)
VH: B1 VH with G54S, Y95F
notes: as for B1
B7: anti-FOLR1 heavy chain antibody (HCAb, UniAb) clone ID 358397 (antibody, V domains shown)
VH: B1 VH with G15R, A23E
notes: as for B1
B8: anti-FOLR1 heavy chain antibody (HCAb, UniAb) clone ID 358399 (antibody, V domains shown)
VH: B1 VH with A23V, G54S
notes: as for B1
B9: anti-FOLR1 heavy chain antibody (HCAb, UniAb) clone ID 358413 (antibody, V domains shown)
VH: B1 VH with K13Q, T28S, G54S, A75S, S78T
notes: as for B1
B10: anti-FOLR1 heavy chain antibody (HCAb, UniAb) clone ID 358416 (antibody, V domains shown)
VH: B1 VH with S33T
notes: as for B1
B11: anti-FOLR1 heavy chain antibody (HCAb, UniAb) clone ID 358418 (antibody, V domains shown)
VH: B1 VH with K13Q, V93L
notes: as for B1
B12: anti-FOLR1 heavy chain antibody (HCAb, UniAb) clone ID 358420 (antibody, V domains shown)
VH: B1 VH with K76N, Y95F
notes: as for B1
B13: anti-FOLR1 heavy chain antibody (HCAb, UniAb) clone ID 358441 (antibody, V domains shown)
VH: B1 VH with K13Q, T28S, A88G
notes: as for B1
B14: anti-FOLR1 heavy chain antibody (HCAb, UniAb) clone ID 358442 (antibody, V domains shown)
VH: B1 VH with S50Y, G54S
notes: as for B1
B15: anti-FOLR1 heavy chain antibody (HCAb, UniAb) clone ID 358446 (antibody, V domains shown)
VH: B1 VH with T28I, N74D, Y95F
notes: as for B1
B16: anti-FOLR1 heavy chain antibody (HCAb, UniAb) clone ID 358452 (antibody, V domains shown)
VH: B1 VH with K13Q, S49A, Y57D
notes: as for B1
B17: anti-FOLR1 heavy chain antibody (HCAb, UniAb) clone ID 358456 (antibody, V domains shown)
VH: B1 VH with T28I, Y95F
notes: as for B1
B18: anti-FOLR1 heavy chain antibody (HCAb, UniAb) clone ID 358462 (antibody, V domains shown)
VH: B1 VH with K13Q
notes: as for B1
B19: anti-FOLR1 heavy chain antibody (HCAb, UniAb) clone ID 358464 (antibody, V domains shown)
VH: B1 VH with K13Q, S50Y, G54S, Y57T
notes: as for B1
B20: anti-FOLR1 heavy chain antibody (HCAb, UniAb) clone ID 358466 (antibody, V domains shown)
VH: B1 VH with V12I, K13Q
notes: as for B1
B21: anti-FOLR1 heavy chain antibody (HCAb, UniAb) clone ID 358468 (antibody, V domains shown)
VH: B1 VH with G54S
notes: as for B1
B22: anti-FOLR1 heavy chain antibody (HCAb, UniAb) clone ID 358478 (antibody, V domains shown)
VH: B1 VH with V12I, K13Q, T28I, S50Y, G54S
notes: as for B1
B23: anti-FOLR1 heavy chain antibody (HCAb, UniAb) clone ID 358480 (antibody, V domains shown)
VH: B1 VH with S56T
notes: as for B1
B24: anti-FOLR1 heavy chain antibody (HCAb, UniAb) clone ID 358590 (antibody, V domains shown)
VH: B4 VH with S28T, K35N, S56D, T98S
notes: as for B4
B25: anti-FOLR1 heavy chain antibody (HCAb, UniAb) clone ID 358596 (antibody, V domains shown)
VH: B4 VH with S28T, S52D, T57I, T98S
notes: as for B4
B26: anti-FOLR1 heavy chain antibody (HCAb, UniAb) clone ID 358608 (antibody, V domains shown)
VH: B4 VH with V48I, S53G, S56D, T98S
notes: as for B4
B27: anti-FOLR1 heavy chain antibody (HCAb, UniAb) clone ID 358624 (antibody, V domains shown)
VH: B4 VH with S56D, E89D, T98S
notes: as for B4
B28: anti-FOLR1 heavy chain antibody (HCAb, UniAb) clone ID 358626 (antibody, V domains shown)
VH: B4 VH with Q13K, S56D, E89D, T98S
notes: as for B4
B29: anti-FOLR1 heavy chain antibody (HCAb, UniAb) clone ID 358647 (antibody, V domains shown)
VH: B4 VH with K35N, V48I, S53G, S56D, D88A, T98S
notes: as for B4
B30: anti-FOLR1 heavy chain antibody (HCAb, UniAb) clone ID 358655 (antibody, V domains shown)
VH: B4 VH with S28T, V48I, S53G, S56D, S85G, T98S
notes: as for B4
B31: anti-FOLR1 heavy chain antibody (HCAb, UniAb) clone ID 358656 (antibody, V domains shown)
VH: B4 VH with K35N, S56D, T98S
notes: as for B4
B32: anti-FOLR1 heavy chain antibody (HCAb, UniAb) clone ID 358664 (antibody, V domains shown)
VH: B4 VH with E46D, S56D, T98S
notes: as for B4
B33: anti-FOLR1 heavy chain antibody (HCAb, UniAb) clone ID 358676 (antibody, V domains shown)
VH: B4 VH with S56D, D88A, T98S
notes: as for B4

The binders below were run against T1, human Folate Receptor Alpha (FOLR1) on cells (human, UniProt P15328 25-234) (assay: cell binding, IGROV-1 cells).
T1 construct: whole, on cells; Endogenous on IGROV-1, OVCAR-3, SKOV-3, HT-29 cells; transfected on CHO cells; the cell is named under assay; also called FRα; FRa
T1 sequence (P15328 25-234): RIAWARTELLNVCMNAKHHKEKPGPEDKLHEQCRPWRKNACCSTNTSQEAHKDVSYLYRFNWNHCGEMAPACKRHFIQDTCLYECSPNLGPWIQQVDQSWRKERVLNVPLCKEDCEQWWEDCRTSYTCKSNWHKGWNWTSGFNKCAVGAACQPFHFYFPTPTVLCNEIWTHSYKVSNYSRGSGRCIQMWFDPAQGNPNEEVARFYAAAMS

| Binder | EC50 [nM] |
| --- | --- |
| B1 | 3.9 |
| B2 | 4.1 |
| B3 | 5 |
| B4 | 4.6 |

These binders were tested against T1, human Folate Receptor Alpha (FOLR1) on … (assay: flow cytometry, CHO cells stably expressing human FOLR1).

| Binder | fold over background MFI [fold over background] |
| --- | --- |
| B1 | 1220 |
| B2 | 1230 |
| B3 | 1590 |
| B5 | 402 |
| B6 | 1730 |
| B7 | 277 |
| B8 | 2010 |
| B9 | 1810 |
| B10 | 1870 |
| B11 | 1500 |
| B12 | 1760 |
| B13 | 1900 |
| B14 | 1600 |
| B15 | 1270 |
| B16 | 1840 |
| B17 | 1870 |
| B18 | 2150 |

| Binder | fold over background MFI [fold over background] |
| --- | --- |
| B19 | 2100 |
| B20 | 1600 |
| B21 | 1670 |
| B22 | 427 |
| B23 | 2140 |
| B4 | 906 |
| B24 | 1570 |
| B25 | 1960 |
| B26 | 1280 |
| B27 | 1670 |
| B28 | 1710 |
| B29 | 920 |
| B30 | 926 |
| B31 | 1410 |
| B32 | 1470 |
| B33 | 980 |

Each binder was assayed against T1, human Folate Receptor Alpha (FOLR1) on … (assay: cell binding, CHO cells stably expressing human FOLR1).

| Binder | EC50 [nM] |
| --- | --- |
| B1 | 5.1 |
| B2 | 3.8 |
| B3 | 4.2 |
| B4 | 3.8 |

What follows are binders tested against T1, human Folate Receptor Alpha (FOLR1) on … (assay: cell binding, OVCAR-3 cells).

| Binder | EC50 [nM] |
| --- | --- |
| B1 | 3.3 |
| B2 | 3.1 |
| B3 | 2.4 |

Each binder was assayed against T2, CHO_huFOLR2 (human, UniProt P14207) (assay: flow cytometry on CHO cells stably expressing human FOLR2, MFI fold over background).
T2 construct: stably expressed on CHO cells; also called human FOLR2 on CHO cells; folate receptor beta
T2 sequence (P14207 17-230 limits assumed): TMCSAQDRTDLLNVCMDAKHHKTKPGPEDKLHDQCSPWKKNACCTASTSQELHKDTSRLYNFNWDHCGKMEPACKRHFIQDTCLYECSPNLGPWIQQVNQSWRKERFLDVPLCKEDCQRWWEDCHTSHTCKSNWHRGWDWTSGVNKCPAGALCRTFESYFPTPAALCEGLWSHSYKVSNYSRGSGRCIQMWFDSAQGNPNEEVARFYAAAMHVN
Protocol: Anti-FOLR1 HCAb binding to CHO cells stably expressing human FOLR2 (also known as folate receptor beta, FRβ), and CHO cells stably expressing human IZUMO1R (also known as folate receptor delta, FOLR4, FRδ, JUNO) was analyzed for a number of different clones. Data are presented in FIG. 2, panels A-B, as MFI fold over background. Insets show binding of positive control anti-FOLR2 and anti-IZUMO1R antibodies, respectively, in dark grey, compared to the respective isotype control in light grey.

| Binder | binding result |
| --- | --- |
| B1 | binds |
| B2 | binds |
| B3 | binds |
| B4 | no binding (tested: 100 nM) |

These binders were tested against recombinant human FOLR1 (human, UniProt P15328 25-234) (assay: BLI, Octet QK-384, recombinant human FOLR1).
Chain of recombinant human FOLR1 (P15328 25-234 limits assumed): as the sequence (P15328 25-234) above
Protocol: As used herein, the “Kd” or “Kd value” refers to a dissociation constant determined by BioLayer Interferometry, using an Octet QK384 instrument (Fortebio Inc., Menlo Park, CA) in kinetics mode. For example, anti-mouse Fc sensors are loaded with mouse-Fc fused antigen and then dipped into antibody-containing wells to measure concentration dependent association rates (kon). Antibody dissociation rates (koff) are measured in the final step, where the sensors are dipped into wells containing buffer only. The Kd is the ratio of koff/kon. (For further details see, Concepcion, J, et al., Comb Chem High Throughput Screen, 12 (8), 791-800, 2009).
Table 17 summarizes affinity and epitope bin information for anti-FOLR1 heavy chain antibodies (HCAbs). Column 1 indicates the clone ID of the HCAb. Column 2 indicates the affinity of the HCAb to recombinant human FOLR1 as measured by Bio-layer interferometry (BLI) using an Octet QK-384. Column 3 indicates the epitope bin of HCAb as determined by a competition BLI binding experiment using an Octet QK-384.

| Binder | Kd [nM] |
| --- | --- |
| B1 | 8.7 |
| B2 | 32.9 |
| B3 | 12.5 |
| B4 | 125 |

Each binder was assayed against T1, human Folate Receptor Alpha (FOLR1) on … (assay: flow cytometry, IGROV-1 cells).

| Binder | fold over background MFI [fold over background] |
| --- | --- |
| B1 | 711 |
| B2 | 548 |
| B3 | 1960 |
| B4 | 594 |

These binders were tested against T3, cyno FOLR1 on CHO cells (cyno (Cynomolgus macaque), UniProt A0A2K5U044 25-234) (assay: flow cytometry, CHO cells stably expressing cyno FOLR1).
T3 construct: whole, on cells; also called cyFOLR1
T3 sequence (A0A2K5U044 entry or part of it): as the sequence (P15328 25-234) above, with I2T, W4R, R37K, A146P, H171Y counted along it

| Binder | fold over background MFI [fold over background] |
| --- | --- |
| B1 | 465 |
| B2 | 179 |
| B3 | 362 |
| B5 | 1.2 |
| B6 | 360 |
| B7 | 331 |
| B8 | 330 |
| B9 | 497 |
| B10 | 1820 |
| B11 | 2080 |
| B12 | 2260 |
| B13 | 2300 |
| B14 | 1.2 |
| B15 | 1.5 |
| B16 | 1.7 |
| B17 | 2090 |
| B18 | 2580 |

| Binder | fold over background MFI [fold over background] |
| --- | --- |
| B19 | 6.4 |
| B20 | 2090 |
| B21 | 314 |
| B22 | 1.1 |
| B23 | 1200 |
| B4 | 97.4 |
| B24 | 21.8 |
| B25 | 1340 |
| B26 | 535 |
| B27 | 933 |
| B28 | 1060 |
| B29 | 3 |
| B30 | 590 |
| B31 | 21.7 |
| B32 | 729 |
| B33 | 717 |

Each binder was assayed against T3, cyno FOLR1 on CHO cells (assay: cell binding, CHO cells stably expressing cyno FOLR1).

| Binder | EC50 [nM] |
| --- | --- |
| B1 | 5 |
| B2 | 4.3 |
| B3 | 4.2 |
| B4 | 3.3 |
